The values that follow come from PMC3514274, “Recombinant sterol esterase from Ophiostoma piceae: an improved biocatalyst expressed in Pichia pastoris” (Microbial Cell Factories, 2012).

Broadly, the stoichiometry N is the number of molecules, sites or subunits per partner or assembly. A word on the Km: it is the substrate concentration at which the rate is half of its maximum. Broadly, the kcat is the maximal rate divided by the concentration of active sites. For orientation: kcat/Km means the turnover number divided by the Michaelis constant.

Data set [1] has as its target recombinant sterol esterase from Ophiostoma piceae expressed in Pichia pastoris (Ophiostoma piceae). The data set can be described thus: AUC; sedimentation velocity; purified protein 200 μg/mL in 25 mM sodium phosphate buffer pH 7.0, aqueous solution without detergent.
Data set [2] shares this target. The data set is described as follows: AUC; sedimentation equilibrium; purified protein 200 μg/mL in 25 mM sodium phosphate buffer pH 7.0, aqueous solution without detergent.
Data set [3] has as its target deglycosylated recombinant sterol esterase from Ophiostoma piceae (OPE* treated with Endo H in non-denaturing conditions) (Ophiostoma piceae). The data set can be described thus: AUC; sedimentation velocity; purified protein 200 μg/mL in 25 mM sodium phosphate buffer pH 7.0, aqueous solution without detergent.
Substrate in data set [4]: CCCC(=O)OCC(COC(=O)CCC)OC(=O)CCC
The data set is described as follows: pH-stat titration of released fatty acid. The class given is biochemical, Ophiostoma piceae. To be noted: 1 mM Tris-HCl pH 7.0, 0.15 M NaCl, 5% (v/v) Genapol X-100, 25°C, substrate emulsified in detergent. From the text:
(§1) pH-stat titration of released fatty acid on OPE* (recombinant sterol esterase from Ophiostoma piceae)

Substrate in data set [5]: CCCC(=O)O[C@H]1CC[C@@]2(C)C(=CC[C@H]3[C@@H]4CC[C@H]([C@H](C)CCCC(C)C)[C@@]4(C)CC[C@@H]32)C1
The data set can be described thus: pH-stat titration of released fatty acid. The class given is biochemical, Ophiostoma piceae. The conditions noted are these: 1 mM Tris-HCl pH 7.0, 0.15 M NaCl, 5% (v/v) Genapol X-100, 25°C, substrate emulsified in detergent.
Source text: as §1

Substrate in data set [6]: CCCCC/C=C\C/C=C\CCCCCCCC(=O)O[C@H]1CC[C@@]2(C)C(=CC[C@H]3[C@@H]4CC[C@H]([C@H](C)CCCC(C)C)[C@@]4(C)CC[C@@H]32)C1
The data set is described as follows: pH-stat titration of released fatty acid. The class given is biochemical, Ophiostoma piceae. The conditions noted are these: 1 mM Tris-HCl pH 7.0, 0.15 M NaCl, 5% (v/v) Genapol X-100, 25°C, substrate emulsified in detergent.
Source text: as §1

Substrate in data set [7]: CCCCCCCC/C=C\CCCCCCCC(=O)OCC(COC(=O)CCCCCCC/C=C\CCCCCCCC)OC(=O)CCCCCCC/C=C\CCCCCCCC
The data set is described as follows: pH-stat titration of released fatty acid. The class given is biochemical, Ophiostoma piceae. The conditions noted are these: 1 mM Tris-HCl pH 7.0, 0.15 M NaCl, 5% (v/v) Genapol X-100, 25°C, substrate emulsified in detergent.
Source text: as §1

Substrate in data set [8]: CCCCCCCC/C=C\CCCCCCCC(=O)O[C@H]1CC[C@@]2(C)C(=CC[C@H]3[C@@H]4CC[C@H]([C@H](C)CCCC(C)C)[C@@]4(C)CC[C@@H]32)C1
The data set is described as follows: pH-stat titration of released fatty acid. The class given is biochemical, Ophiostoma piceae. The conditions noted are these: 1 mM Tris-HCl pH 7.0, 0.15 M NaCl, 5% (v/v) Genapol X-100, 25°C, substrate emulsified in detergent.
Source text: as §1

Substrate in the data set “purified protein”: CCCCCCCCCCCCCCCC(=O)Oc1ccc([N+](=O)[O-])cc1
The data set can be described thus: purified protein. The class given is biochemical, Ophiostoma piceae. To be noted: 100 mM sodium phosphate pH 7.0, 0.15 M NaCl, 1% (v/v) Genapol X-100, 25°C.

For “recombinant sterol esterase from Ophiostoma piceae expressed in Pichia pastoris (enzyme)”, the stoichiometry N in [1] and in [2] was 2 throughout.
For the molecule “deglycosylated recombinant sterol esterase from Ophiostoma piceae (OPE* treated with Endo H in non-denaturing conditions) (enzyme)”, the stoichiometry N in data set [3] was determined as 2.

B1: OPE* (recombinant sterol esterase from Ophiostoma piceae) (Ophiostoma piceae) (protein)
chain: TTVNVNYPEGEVVGVSVLGIESFRGVPFAQPPVGNLRLKPPVRYTENIGTKDTTGIGPSCPQMYLSTGNGELLFQLVGNLINIPLFQTATLSSEDCLTLNIQRPAGTTSNSSLPVLFWIFGGGFELGTNQYYDGIDLLTEGISLGEPFIFVAINYRVGGFGFLGGKEIKADGSSNLGLLDQRIALEWVADNIASFGGDPSKVTIWGESAGSISVFDQMALYGGNNKYKGKALFRGGIMNSGSVVPAAPVDGVKAQAIYDHVVSEAGCAGTSDTLACLRTVDYTKFLTAVNSVPGIVSYSSIALSYLPRPDGVVLIDSPEEIVKNKQYAAVPMIIGDQEDEGTLFAVLPNNITSTAKIVQYFQDLYFYNATKEQLTAFVNTYPTDITAGSPFNTGIFNELYPGFKRLAAILGDMTFTLARRAFLQLCSEVNPDVPSWSYLASYDYGFPFLGTFHATDILQVFYGVLPNYASGSIQKYYINFVTTGDPNKGAAVDIQWPQWSAKKNILQIYATKAVIVADNFRAKSYEYLYNNIGIFRI
notes: N-terminus (EA)EAYVEF + TTVNVNYPE (6 or 8 extra residues, mixed); monomer/dimer, monomeric in Genapol X-100
For the molecule B1, the Km in [4] was 5100 ± 300 µM; in [5], 1600 ± 200 µM; in data set [6] it was 710 ± 90 µM; in data set [7] it was 710 ± 90 µM; in data set [8], 690 ± 100 µM; in the data set “purified protein” it was 370 ± 30 µM. Also, the kcat in data set [4] amounted to 1041 ± 14 s⁻¹; in data set [5], 212 ± 7 s⁻¹; in data set [6] it was 798 ± 25 s⁻¹; in data set [7], 1362 ± 41 s⁻¹; in data set [8], 631 ± 21 s⁻¹; in the data set “purified protein”, 1049 ± 28 s⁻¹. Besides, the kcat/Km stood at 204000 M⁻¹ s⁻¹ in data set [4]; 133000 M⁻¹ s⁻¹ in data set [5]; 1.13e+06 M⁻¹ s⁻¹ in data set [6]; 1.92e+06 M⁻¹ s⁻¹ in data set [7]; 918000 M⁻¹ s⁻¹ in [8]; 2.88e+06 M⁻¹ s⁻¹ in the data set “purified protein”.
